In test [1] the target is T1, CD137-hisFc fusion protein (Sino Biological Cat 10041-H03H) (human, UniProt Q07011 24-186).
T1 construct: Bought; also called recombinant human CD137 (fused with human Fc and His tag); not shown: His tag and human Fc
Put plainly: BLI Octet, Fab. In general terms: In BLI a coated tip is dipped into the sample, and binding shifts an interference pattern.

The target in test [2] is T1, CD137-hisFc fusion protein (Sino …). Put plainly: BLI Octet, Fab. The source holds these as a separate data set.
Test [3] concerns the target T2, human CD137-His6 (Sino Biological #10041-H08H) (human, UniProt Q07011 24-186).
T2 construct: Bought; also called human CD137 protein; not shown: His6 tag
Put plainly: SPR Biacore, IgG.

Read-outs that look alike come from different tables or passages of the source.

B1: Fab 5353 (Fab, V domains shown)
VH: EVQLVESGGGLVQPGGSLRLSCAASGFTFSSYWIHWVRQAPGKGLEWVSVISGDGDTTYYADSVKGRFTISRDNSKNTLYLQLNSLRAEDTAVYYCARSRGLVLDAFDYWGQGTLVTVSS
VL: DIQLTQSPSSLSASVGDRVTITCRASQSVSGRFLAWYQQKPGKAPKLLIYDASSLESGVPSRFSGSGSGTDFTLTISSLQPEDFATYYCQQYDYWPPYTFGQGTKVEIKR
notes: Fab from E. coli; also called VH26/VL26
In the case of B1, in test [1], the Kd – broadly, a measure of binding affinity in units of concentration – worked out at 16.1 nM; the koff (in general, the first-order rate constant of dissociation) came out at 0.00597 s⁻¹; the association rate constant (kon) (as a rule, the second-order rate constant of association) came to 370000 M⁻¹ s⁻¹. In test [2], this molecule returned a dissociation constant (Kd) of 16 nM, a koff of 0.006 s⁻¹ and a kon of 370000 M⁻¹ s⁻¹.

B2: Fab 4217 (Fab, V domains shown)
VH: EVQLVESGGGLVQPGGSLRLSCAASGYSISSGYYWDWIRQAPGKGLEWVSSISGDGDTTYYADSVKGRFTISRDNSKNTLYLQLNSLRAEDTAVYYCAREYYGYGYALDYWGQGTLVTVSS
VL: DIQLTQSPSSLSASVGDRVTITCRASQGISSYLAWYQQKPGKAPKLLIYDASSLESGVPSRFSGSGSGTDFTLTISSLQPEDFATYYCQQYYSTPLTFGQGTKVEIKR
notes: Fab from E. coli; also called VH10/VL10
In test [1], B2 displayed a Kd of 96.7 nM, an off-rate constant (koff) of 0.0545 s⁻¹ and an association rate constant (kon) of 564000 M⁻¹ s⁻¹. Also, in test [2], the Kd came out at 97 nM, the koff was determined as 0.055 s⁻¹ and the kon was 560000 M⁻¹ s⁻¹.

B3: Fab 5299 (Fab, V domains shown)
VH: EVQLVESGGGLVQPGGSLRLSCAASGYSISSGHYWGWIRQAPGKGLEWLALIDWYGDKYYSTSLKSRLTISRDNSKNTLYLQLNSLRAEDTAVYYCARSDYYGSHFDYWGQGTLVTVSS
VL: DIQLTQSPSSLSASVGDRVTITCRASESVDFDGFSFLAWYQQKPGKAPKLLIYDASNLETGVPSRFSGSGSGTDFTLTISSLQPEDFATYYCQQYDTLPRTFGQGTKVEIKR
notes: Fab from E. coli; also called VH11/VL11
In test [1], B3 gave a dissociation constant Kd of 13.7 nM, a koff of 0.0076 s⁻¹ and a kon of 555000 M⁻¹ s⁻¹. In test [2], this molecule displayed a Kd of 14 nM, a koff of 0.0076 s⁻¹ and an on-rate constant (kon) of 560000 M⁻¹ s⁻¹.

B4: AG10086 (antibody, human IgG4 S228P, kappa, V domains shown)
VH: EVQLVESGGGLVQPGGSLRLSCAASGYSISSGHHWAWIRQAPGKGLEWVSVISGSGSSTYYADSVKGRFTISRDNSKNTLYLQLNSLRAEDTAVYYCAREGSDTVLGDWFAYWGQGTLVTVSS
VL: DIQLTQSPSSLSASVGDRVTITCRASQGISSYLAWYQQKPGKAPKLLIYDASNLETGVPSRFSGSGSGTDFTLTISSLQPEDFATYYCQQGYSTWTFGQGTKVEIKR
notes: also called IgG of Fab 5409
Consider B4, for which, in test [3], the Kd was determined as 46 nM, the koff is 0.0045 s⁻¹ and the kon was determined as 100000 M⁻¹ s⁻¹.

B5: Fab 5316 (Fab, V domains shown)
VH: EVQLVESGGGLVQPGGSLRLSCAASGYSISSGYHWAWIRQAPGKGLEWVSSISGDGSSTYYADSVKGRFTISRDNSKNTLYLQLNSLRAEDTAVYYCAREGSDAVTGDWFAYWGQGTLVTVSS
VL: DIQLTQSPSSLSASVGDRVTITCRASQGVGTYLAWYQQKPGKAPKLLIYDASSLESGVPSRFSGSGSGTDFTLTISSLQPEDFATYYCQQGYSLWTFGQGTKVEIKR
notes: Fab from E. coli; also called VH17/VL17
Regarding B5, in test [1], the Kd worked out at 11.4 nM, the koff was found to be 0.00161 s⁻¹ and the association rate constant (kon) worked out at 141000 M⁻¹ s⁻¹. In addition, in test [2], binding was characterised by a dissociation constant (Kd) of 11 nM, the koff amounted to 0.0016 s⁻¹ and the kon is 140000 M⁻¹ s⁻¹.

B6: Fab 5323 (Fab, V domains shown)
VH: EVQLVESGGGLVQPGGSLRLSCAASGFSLSTSGVGVGWIRQAPGKGLEWIGEIYHSGSTYYSPSLKSRVTISRDNSKNTLYLQLNSLKAEDTAVYYCAREGSDVVTGDWFAYWGQGTLVTVSS
VL: DIQLTQSPSSLSASVGDRVTITCRASQGISSVLAWYQQKPGKAPKLLIYDASSLESGVPSRFSGSGSGTDFTLTISSLQPEDFATYYCQQGYSLWTFGQGTKVEIKR
notes: Fab from E. coli; also called VH19/VL19
Turning to B6, in test [1], binding was characterised by a dissociation constant (Kd) of 10.4 nM, the koff was 0.00812 s⁻¹ and the on-rate constant (kon) worked out at 782000 M⁻¹ s⁻¹. In test [2], this molecule came in with a Kd of 10 nM, a koff of 0.0081 s⁻¹ and an association rate constant (kon) of 780000 M⁻¹ s⁻¹.

B7: Fab 4074 (Fab, V domains shown)
VH: EVQLVESGGGLVQPGGSLRLSCAASGFSLSTGGVGVSWIRQAPGKGLEWVSSISGSGGTTYYADSVKGRFTISRDNSKNTLYLQLNSLRAEDTAVYYCARDDLYSWYFDVWGQGTLVTVSS
VL: DIQLTQSPSSLSASVGDRVTITCRASQGIGSSLAWYQQKPGKAPKLLIYAASSLQSGVPSRFSGSGSGTDFTLTISSLQPEDFATYYCQQGYYTWTFGQGTKVEIKR
notes: Fab from E. coli
In the case of B7, in test [1], the affinity, expressed as Kd, was 19.5 nM; the off-rate constant (koff) came out at 0.000937 s⁻¹; the kon was found to be 48000 M⁻¹ s⁻¹. In test [2], this molecule yielded a Kd of 20 nM, a koff of 0.00094 s⁻¹ and an association rate constant (kon) of 48000 M⁻¹ s⁻¹.

B8: Fab 5300 (Fab, V domains shown)
VH: EVQLVESGGGLVQPGGSLRLSCAASGYTFSNYWIHWVRQAPGKGLEWVSYISGDGDTTYYADSVKGRFTISRDNSKNTLYLQLNSLRAEDTAVYYCAREGSTTVAGDWFAYWGQGTLVTVSS
VL: DIQLTQSPSSLSASVGDRVTITCRASQGIGSFLGWYQQKPGKAPKLLIYDASSLESGVPSRFSGSGSGTDFTLTISSLQPEDFATYYCQQYYSLVTFGQGTKVEIKR
notes: Fab from E. coli; also called VH12/VL12
Regarding B8, in test [1], the affinity, expressed as Kd, was 15.3 nM; the koff was found to be 0.0091 s⁻¹; the kon is 596000 M⁻¹ s⁻¹. In test [2], this molecule returned a Kd of 15 nM, a koff of 0.0091 s⁻¹ and a kon of 600000 M⁻¹ s⁻¹.

B9: Fab 5367 (Fab, V domains shown)
VH: EVQLVESGGGLVQPGGSLRLSCAASGFSLSTSGVGVGWIRQAPGKGLEWVSGISGAGDSTYYADSVKGRFTISRDNSKNTLYLQLNSLRAEDTAVYYCAREGSDTVLGDWFAYWGQGTLVTVSS
VL: DIQLTQSPSSLSASVGDRVTITCRASQDIRSYLAWYQQKPGKAPKLLIYDASNRATGIPSRFSGSGSGTDFTLTISSLQPEDFATYYCQQGYSIWTFGQGTKVEIKR
notes: Fab from E. coli; also called VH31/VL31
For B9, in test [1], the Kd was 14.9 nM, the koff amounted to 0.00608 s⁻¹ and the kon worked out at 407000 M⁻¹ s⁻¹. In addition, in test [2], the Kd worked out at 15 nM, the koff came out at 0.0061 s⁻¹ and the kon is 410000 M⁻¹ s⁻¹.

B10: AG10084 (antibody, human IgG4 S228P, kappa, V domains shown)
VH: EVQLVESGGGLVQPGGSLRLSCAASGYSITSGHYWNWIRQAPGKGLEWVSGISGDGSSTYYADSVKGRFTISRDNSKNTLYLQLNSLRAEDTAVYYCARGGSDAVLGDWFAYWGQGTLVTVSS
VL: DIQLTQSPSSLSASVGDRVTITCRASQSISSYLAWYQQKPGKAPKLLIYDASNLETGVPSRFSGSGSGTDFTLTISSLQPEDFATYYCQQGYSTWTFGQGTKVEIKR
Take B10: in test [3], the dissociation constant (Kd) came out at 43 nM, the koff came out at 0.0028 s⁻¹ and the on-rate (kon) amounted to 66000 M⁻¹ s⁻¹.

B11: Fab 5365 (Fab, V domains shown)
VH: EVQLVESGGGLVQPGGSLRLSCAASGFSLSTGGVGVGWIRQAPGKGLEWLALIDWADDKYYSPSLKSRLTISRDNSKNTLYLQLNSLRAEDTAVYYCARGGSDTVIGDWFAYWGQGTLVTVSS
VL: DIQLTQSPSSLSASVGDRVTITCRASQSIGSYLAWYQQKPGKAPKLLIYDASNLETGVPSRFSGSGSGTDFTLTISSLQPEDFATYYCQQGYYLWTFGQGTKVEIKR
notes: Fab from E. coli; also called VH30/VL30
In test [1], B11 had a Kd of 2.56 nM, a dissociation rate constant (koff) of 0.00179 s⁻¹ and a kon of 701000 M⁻¹ s⁻¹. In test [2], this molecule gave a Kd of 2.6 nM, a dissociation rate constant (koff) of 0.0018 s⁻¹ and an on-rate (kon) of 700000 M⁻¹ s⁻¹.

The values are drawn from patent publication US20190055314A1 (ADAGENE, published 2019).
